Measurements taken from patent US20240010720A1 (IOMX THERAPEUTICS, published 2024).
Where a chain is given by its changes, count along the chain named.

T1: IGSF11 ECD fused to murine-Fc (human; mouse, UniProt Q5DX21 23-241)
T1 construct: also called Fc-fusion IGSF11 ECD; full-length ECD of IGSF11; not shown: murine Fc
T1 sequence: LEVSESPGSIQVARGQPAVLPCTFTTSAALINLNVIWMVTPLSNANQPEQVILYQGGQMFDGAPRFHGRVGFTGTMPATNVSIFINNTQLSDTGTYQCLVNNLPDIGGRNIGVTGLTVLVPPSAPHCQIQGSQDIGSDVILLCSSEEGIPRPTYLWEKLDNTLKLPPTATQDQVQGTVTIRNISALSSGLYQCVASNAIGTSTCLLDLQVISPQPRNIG

T2: His-tagged extracellular domain (ECD) of human IGSF11 (VSIG3) (human, UniProt Q5DX21 23-241)
T2 construct: partly bought (SinoBiological 13094-H08H); also called IGSF11-HIS; HIS-IGSF11; not shown: HIS6 tag
T2 sequence: T1 sequence

B1: C-013 (IgG1 format) (antibody, V domains shown)
VH: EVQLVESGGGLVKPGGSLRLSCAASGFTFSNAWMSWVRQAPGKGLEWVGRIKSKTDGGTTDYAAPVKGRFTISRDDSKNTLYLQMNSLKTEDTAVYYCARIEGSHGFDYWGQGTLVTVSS
VL: SYELTQPPSVSVSPGQTASITCSGDKLGDKYASWYQQKPGQSPVLVIYQDSKRPSGIPERFSGSNSGNTATLTISGTQAEDEADYYCASYLHTPKQFVFGGGTKLTVL
notes: wildtype human IgG1 and kappa or lambda constant regions
B2: C-018 (IgG1 format) (antibody, V domains shown)
VH: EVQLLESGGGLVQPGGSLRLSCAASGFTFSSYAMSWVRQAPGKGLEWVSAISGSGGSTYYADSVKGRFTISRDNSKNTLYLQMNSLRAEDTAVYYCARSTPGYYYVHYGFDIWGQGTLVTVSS
VL: B1 VL with A88Q, S89A, Y90W, L91S, H92T, T93S, P94T, K95H, Q96S, F97W
notes: as for B1
B3: C-015 (IgG1 format) (antibody, V domains shown)
VH: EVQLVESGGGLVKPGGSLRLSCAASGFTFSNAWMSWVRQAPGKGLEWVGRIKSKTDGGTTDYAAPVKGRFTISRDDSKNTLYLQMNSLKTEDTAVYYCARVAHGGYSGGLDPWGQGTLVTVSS
VL: B1 VL with A88S, Y90T, L91G, H92T, T93A, P94H, K95T, Q96L, F97A
notes: as for B1
B4: C-009 (IgG1 format) (antibody, V domains shown)
VH: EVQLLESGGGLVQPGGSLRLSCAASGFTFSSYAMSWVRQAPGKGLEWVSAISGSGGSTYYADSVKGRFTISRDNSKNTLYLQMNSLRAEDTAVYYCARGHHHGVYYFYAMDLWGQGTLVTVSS
VL: B1 VL with A88Q, L91S, H92G, T93S, P94S, K95T, Q96L, F97H
notes: as for B1
B5: C-023 (IgG1 format) (antibody, V domains shown)
VH: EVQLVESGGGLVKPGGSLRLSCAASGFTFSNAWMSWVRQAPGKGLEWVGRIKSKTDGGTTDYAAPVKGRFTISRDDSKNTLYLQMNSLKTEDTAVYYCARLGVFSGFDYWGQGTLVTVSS
VL: B1 VL with A88H, S89T, Y90W, L91T, T93H, P94S, K95L, Q96A, F97V
notes: as for B1
B6: C-008 (IgG1 format) (antibody, V domains shown)
VH: EVQLLESGGGLVQPGGSLRLSCAASGFTFSSYAMSWVRQAPGKGLEWVSAISGSGGSTYYADSVKGRFTISRDNSKNTLYLQMNSLRAEDTAVYYCTTDNGHNRDWGQGTLVTVSS
VL: ASVLTQPPSVSAAPGQKVTISCSGSSSNIGNNYVSWYQQLPGTAPKLLIYDNNKRPSGIPDRFSGSKSGTSATLGITGLQAEDEADYYCGTWTRSSGVFGGGTKLTVL
notes: as for B1
B7: C-010 (IgG1 format) (antibody, V domains shown)
VH: QVQLVQSGAEVKKPGSSVKVSCKASGGTFSSYAISWVRQAPGQGLEWMGGIIPIFGTANYAQKFQGRVTITADESTSTAYMELSSLRSEDTAVYYCARGYGEYYPAFDVWGQGTLVTVSS
VL: B1 VL with L91A, P94H, K95S, Q96T, F97W
notes: as for B1
B8: C-006 (IgG1 format) (antibody, V domains shown)
VH: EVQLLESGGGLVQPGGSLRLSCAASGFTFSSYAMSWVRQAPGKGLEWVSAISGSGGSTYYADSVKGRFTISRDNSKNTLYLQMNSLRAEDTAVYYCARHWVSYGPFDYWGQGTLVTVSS
VL: DIQMTQSPSSLSASVGDRVTITCRASQSISSYLNWYQQKPGKAPKLLIYAASSLQSGVPSRFSGSGSGTDFTLTISSLQPEDFATYYCQQSHQSPPITFGQGTKVEIK
notes: as for B1
B9: C-002 (IgG1 format) (antibody, V domains shown)
VH: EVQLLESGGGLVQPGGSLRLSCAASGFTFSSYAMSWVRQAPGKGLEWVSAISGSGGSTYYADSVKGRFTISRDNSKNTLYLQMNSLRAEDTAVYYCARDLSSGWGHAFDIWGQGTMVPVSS
VL: ASVLTQPPSVSAAPGQKVTISCSGSSSNIGNNYVSWYQQLPGTAPKLLIYDNNKRPSGIPDRFSGSKSGTSATLGITGLQAEDEADYYCLSYTTSEHHLVFGGGTKLTVL
notes: as for B1
B10: A-004 (scFv format) (scFv, V domains shown)
VH: EVQLVESGGGLVKPGGSLRLSCAASGFTFSSYSMNWVRQAPGKGLEWVSSISSSSSYIYYADSVKGRFTISRDNAKNSLYLQMNSLRAEDTAVYYCARGQLLWFGESALIDAFDIWGQGTMVTVSS
VL: EIVLTQSPSSLSASVGDRVTITCRASQSISSYLNWYQLKPGKAPKLLIYAASILQSGVPSRFSGSGSGTDFTLTISSLQPEDFAAYYCQQSYSTPRTFGQGTKLEIK
notes: scFv
B11: A-027 (scFv format) (scFv, V domains shown)
VH: B7 VH with E74K, G99A, Y100R, E102S, Y103T, Y104W, P105G, A106Y, V109Y
VL: EIVLTQSPASLSLSPGERVTLSCRASQSVSNYLAWYQQKPGQAPRLLIYDASNRATGIPARFSGSGSGTDFTLTISSLEPEDFAVYYCQQRDNWPLTFGGGTKVEIK
notes: scFv
B12: A-034 (scFv format) (scFv, V domains shown)
VH: QMQLVQSGGGLVKPGGSLRLSCAASGFTFSSYTMNWVRQAPGKGLEWVSSISSIGTYIYYADSVKGRFTISRDNAKNSLYLQMNSLRAEDTAVYYCARVLLSGSYYGYFDSWGQGTLVTVSS
VL: QSVLTQPPSVSGAPGQRVTISCTGSSSNIGAGYDVHWYQQLPGTAPKLFIYGNSNRPSGVPDRFSGSKSGTSASLAITGLQAEDEADYYCQSYDSSLSGYVFGTGTKVTVL
notes: scFv
B13: A-003 (scFv format) (scFv, V domains shown)
VH: VQLVQSGAEVKKPGSSVKVSCKASGGTFSSYAISWVRQAPGQGLEWMGGIIPIFGTANYAQKFQGRVTITADESTSTAYMELSSLRSEDTAVYYCASPRIQLWAAGGFDYWGQGTLVTVSS
VL: QSALTQPASVSGSPGQSITISCTGTSSDVGGYNLVSWYQQHPGKAPKLMIYDVSNRPSGVSNRFSGSKSGNTASLTISGLQAEDEADYYCSSFTTSTTLVFGGGTKLTVL
notes: scFv
B14: A-033 (scFv format) (scFv, V domains shown)
VH: QVQLVQSGAEVKKPGASVKVSCKASGYTFTSYGISWVRQAPGQGLEWMGWISAYNGNTNYAQKLQGRVTMTTDTSTSTAYMELRSLRSDDTAVYYCARDHSIVGATTFDYWGQGTLVTVSS
VL: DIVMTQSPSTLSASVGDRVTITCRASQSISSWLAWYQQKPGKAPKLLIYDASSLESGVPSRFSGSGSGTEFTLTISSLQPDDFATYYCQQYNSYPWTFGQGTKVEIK
notes: scFv
B15: A-029 (scFv format) (scFv, V domains shown)
VH: QVQLVQSGAEVKKPGSSVKVSCKASGGTFSSYAISWVRQAPGQGLEWMGGIIPIFGTANYAQKFQGRVTITADESTGTAYMELSSLRSEDTAVYYCARSYYYYYGMDVWGQGTTVTVSS
VL: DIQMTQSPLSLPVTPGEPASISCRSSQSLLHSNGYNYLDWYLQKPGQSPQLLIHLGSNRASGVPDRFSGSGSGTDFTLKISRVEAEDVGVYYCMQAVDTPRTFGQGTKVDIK
notes: scFv
B16: A-035 (scFv format) (scFv, V domains shown)
VH: QVQLVQSGAEVKKPGASVKVSCKASGYTFTGYYMHWVRQAPGQGLEWMGWINPNSGNTGYAQKFQGRVTMTRNTSISTAYMELSSLRSEDTAVYYCARGRLERGYWYFDLWGRGTLVTVSS
VL: NFMLTQPHSVSESPGRTVTISCTRSSGSITSNYVQWYQQRPGSAPTILIYEDKERPSEVPDRFSGSIDISSNSASLTISGLKTEDEADYYCQSYGGTSQGVLFGGGTKVTVL
notes: scFv
B17: A-008 (IgG1 format) (antibody, V domains shown)
VH: QLQLQESGPGLVKPSETLSLTCTVSGGSISSSGYYWGWIRQPPGKGLEWIGSIYYSGSTYYNPSLKSRVTISVDTSKNQFSLKLSSVTAADTAVYYCARHRVRFGEFDAFDIWGQGTMVTVSS
VL: QAVLTQPPSVSGAPGERVTLSCTGTSSNVGADFDVHWYQQFPGTAPRLLIFGSDNRPSGVPDRFSGSKSGTSASLAITGLQVEDEADYYCQAYDVRLSGWVFGGGTKLTVL
notes: human IgG1 format
B18: A-025 (IgG1 format) (antibody, V domains shown)
VH: B7 VH with S84T, Y100G, G101W, E102L, Y103R, Y104Q, P105N, A106W, V109P
VL: SSELTQDPAVSVALGQTVRITCQGDSLRSYYASWYQQKPGQAPVLVIYGKNNRPSGIPDRFSGSSSGNTASLTITGAQAEDEADYYCNSRDSSGNHPRVFGGGTKLTVL
notes: human IgG1 format
B19: A-009 (IgG1 format) (antibody, V domains shown)
VH: B7 VH with Y100R, E102F, Y103G, Y104E, P105L, A106Y, V109Y
VL: ETTLTQSPATLSVSPGERATLSCRASQGVRSNIAWYQQKPGQAPRLLIYDSSTRATGIPARFSGSGSGTEFTLTISSLQSEDFAVYSCQQYKNWPRTFGQGTKVEIK
notes: human IgG1 format
B20: A-001 (IgG1 format) (antibody, V domains shown)
VH: EVQLVESGGGLVKPGGSLRLSCAASGFTFSSYSMNWVRQAPGKGLEWVSSISSSSSYIYYADSVKGRFTISRDNAKNSLYLQMNSLRAEDTAVYYCVRSIIVQALGITSVFDIWGQGTMVTVSS
VL: AIRLTQSPSSLSASVGDRVTISCRASQIISNHLNWYQQKPGKAPKLLIYAASRLQTGVPSRFSGSGSETDYTLTISSLQPEDFATYYCQQSYSNPRTFGHGTKVEIK
notes: human IgG1 format
B21: A-003 (IgG1 format) (antibody, V domains shown)
VH: B13 VH
VL: B13 VL
notes: human IgG1 format
B22: A-033 (IgG1 format) (antibody, V domains shown)
VH: B14 VH
VL: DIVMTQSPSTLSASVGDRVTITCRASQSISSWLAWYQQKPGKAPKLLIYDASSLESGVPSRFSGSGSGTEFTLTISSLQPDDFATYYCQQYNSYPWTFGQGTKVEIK
notes: human IgG1 format
B23: A-029 (IgG1 format) (antibody, V domains shown)
VH: B15 VH
VL: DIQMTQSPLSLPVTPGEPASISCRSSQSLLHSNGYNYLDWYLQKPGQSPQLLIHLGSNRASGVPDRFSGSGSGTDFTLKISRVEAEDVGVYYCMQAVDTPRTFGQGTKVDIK
notes: human IgG1 format
B24: A-016 (IgG1 format) (antibody, V domains shown)
VH: QVQLQESGAEVKKPGASVKVSCKASGYTFTGYYMHWVRQAPGQGLEWMGGIIPIFGTANYAQKFQGRVTITADESTSTAYMELSSLRSEDTAVYYCAGAGMELTRSGAYYYYGMDVWGQGTTVTVSS
VL: QSALTQPASVSGSPGQSITISCTGTSSDIGGYTFVSWYQQHPGKAPKVMIHDVNNRPSGISNRFSGSKSGNTASLTISGLQAEDEADYYCSSVTSTNTYVFGTGTKVTVL
notes: human IgG1 format
B25: A-023 (IgG1 format) (antibody, V domains shown)
VH: QVQLVQSGAEVKKPGSSVKVSCKASGGTFSSYAISWVRQAPGQGLEWMGGIIPIFGTANYAQKFQGRVTITADESTSTAYMELSSLRSEDTAVYYCARPKYSSGWFYYYGMDVWGQGTTVTVSS
VL: QSVLTQPPSVSAAPGQKVTISCSGSSSNIGNNYVSWYQQLPGTAPKLLIYDNNKRPSGIPDRFSGSKSGTSATLGITGLQTGDEADYYCGTWDSSLSVVFGGGTKLTVL
notes: human IgG1 format

molecular target: T1, IGSF11 ECD fused to murine-Fc; assay: ELISA, IgG
Description: Expi293 cells (ThermoFisher) were transiently transfected with DNA sequences encoding the applicable IGSF11 domain-mFc fusions according to the manufacturer's instructions, and cultured under conditions suitable to the IGSF11 domain fusion. Cell supernatants were harvested 5 days post transfection and the expressed Fc-protein purified via Protein A affinity chromatography (GE Healthcare). IGSF11 domain Fc-fusion proteins were re-buffered into PBS pH7.4. […] The surface was blocked with 2% (w/v) skim milk powder in PBST. After three wash cycles with PBST, a dilution series of IgG-format ABPs was transferred to the immobilized the Fc-fusion IGSF11 ECD or the IGSF11 domains and incubated for 1 h. After removing all unbound antibodies by 3 wash cycles with PBST, bound IgG ABPs were detected with a goat anti-human IgG antibody conjugated with horseradish peroxidase. After three wash cycles with PBST the ELISA was developed with TMB substrate.

Binder | EC50 [nM]
B1 | 1 to 20
B2 | 1 to 20
B3 | 20 to 100
B4 | 1 to 20
B5 | < 1
B6 | < 1
B7 | 20 to 100
B8 | 1 to 20
B9 | 1 to 20

molecular target: T3, Streptavidin (UniProt P22629 37-163, limits assumed); assay: ELISA, scFv
T3 construct: also called negative antigen; irrelevant antigen
T3 sequence (P22629 37-163 limits assumed): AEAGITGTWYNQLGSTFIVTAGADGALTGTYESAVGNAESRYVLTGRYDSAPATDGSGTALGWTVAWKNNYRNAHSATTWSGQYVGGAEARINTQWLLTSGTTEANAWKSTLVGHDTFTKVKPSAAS

Binder | binding result
B10 | no binding (tested: <0.025 or <0.05 RFU)
B11 | no binding (tested: <0.025 or <0.05 RFU)
B12 | no binding (tested: <0.025 or <0.05 RFU)
B13 | no binding (tested: <0.025 or <0.05 RFU)
B14 | no binding (tested: <0.025 or <0.05 RFU)
B15 | no binding (tested: <0.025 or <0.05 RFU)
B16 | no binding (tested: <0.025 or <0.05 RFU)

molecular target: T2, His-tagged extracellular domain (ECD) …; assay: ELISA EC50 grade, IgG1

Binder | EC50 [nM]
B17 | 0.02 to 0.05
B18 | 0.05 to 1
B19 | 0.05 to 1
B20 | < 0.02
B21 | 0.05 to 1
B22 | 0.02 to 0.05
B23 | 0.05 to 1
B24 | < 0.02
B25 | 0.05 to 1
